From patent US20140087995A1 (published 2014)
Numbered stars: 1 amine (or outer) side, 2 acyl side, 3 side chain; on linkers, the order of the positions; unused ones are H or OH. Bridge positions count the residues as written; N and C are the ends. Side chains are listed from the residue outwards. Ends that are not written are not given here. * marks the point of attachment. C20 diacid = O=C(O)CCCCCCCCCCCCCCCCCCC(=O)*; γGlu = O=C(O)[C@H](CCC(=O)[*:2])N[*:1]

T1: human amylin receptor (amylin 3(a) receptor: human calcitonin receptor plus RAMP-3) (human, UniProt P30988 25-474; O60896 24-148)
T1 sequence (looked up) 1: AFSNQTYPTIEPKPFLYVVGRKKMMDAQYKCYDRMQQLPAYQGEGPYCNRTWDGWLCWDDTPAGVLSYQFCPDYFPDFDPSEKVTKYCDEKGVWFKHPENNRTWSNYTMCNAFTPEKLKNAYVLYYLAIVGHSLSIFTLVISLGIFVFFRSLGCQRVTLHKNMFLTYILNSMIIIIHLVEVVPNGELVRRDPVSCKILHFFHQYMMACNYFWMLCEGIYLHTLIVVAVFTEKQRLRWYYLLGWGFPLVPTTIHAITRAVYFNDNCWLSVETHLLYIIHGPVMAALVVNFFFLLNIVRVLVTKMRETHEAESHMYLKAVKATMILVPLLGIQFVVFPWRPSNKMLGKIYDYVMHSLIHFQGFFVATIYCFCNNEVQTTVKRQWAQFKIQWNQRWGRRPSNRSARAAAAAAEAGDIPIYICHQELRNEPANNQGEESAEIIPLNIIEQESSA
T1 sequence (looked up) 2: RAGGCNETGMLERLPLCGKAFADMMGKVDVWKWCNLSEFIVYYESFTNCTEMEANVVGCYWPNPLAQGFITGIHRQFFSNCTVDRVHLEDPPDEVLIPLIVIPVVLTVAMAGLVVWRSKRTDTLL

T2: human calcitonin receptor (human, UniProt P30988 25-474)
T2 sequence (looked up): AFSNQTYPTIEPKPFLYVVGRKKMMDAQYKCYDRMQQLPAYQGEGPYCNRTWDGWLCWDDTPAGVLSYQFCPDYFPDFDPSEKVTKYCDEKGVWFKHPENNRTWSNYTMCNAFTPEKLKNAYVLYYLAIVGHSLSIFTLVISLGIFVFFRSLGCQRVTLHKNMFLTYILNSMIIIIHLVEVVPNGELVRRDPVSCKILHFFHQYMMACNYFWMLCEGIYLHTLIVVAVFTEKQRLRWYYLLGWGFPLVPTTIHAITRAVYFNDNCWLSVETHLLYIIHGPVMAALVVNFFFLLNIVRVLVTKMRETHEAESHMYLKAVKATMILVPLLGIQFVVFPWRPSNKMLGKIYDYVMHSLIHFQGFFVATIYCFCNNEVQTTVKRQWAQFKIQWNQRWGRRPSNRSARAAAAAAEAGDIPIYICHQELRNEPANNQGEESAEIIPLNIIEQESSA

B1: N^ε1-[(4S)-4-carboxy-4-(19-carboxynonadecanoylamino)butanoyl]-[Glu14,Arg17,Pro21,Pro27,Arg34,Glu35]-h-amylin (peptide)
peptide: K([γGlu-C20 diacid])CNTATCATQRLAEFLRHSSPNFGAIPSSTNVGRETY-NH2
modifications: disulfide 2-7; N-terminus assumed
SMILES: CC[C@H](C)[C@H](NC(=O)[C@H](C)NC(=O)CNC(=O)[C@H](Cc1ccccc1)NC(=O)[C@H](CC(N)=O)NC(=O)[C@@H]1CCCN1C(=O)[C@H](CO)NC(=O)[C@H](CO)NC(=O)[C@H](Cc1c[nH]cn1)NC(=O)[C@H](CCCNC(=N)N)NC(=O)[C@H](CC(C)C)NC(=O)[C@H](Cc1ccccc1)NC(=O)[C@H](CCC(=O)O)NC(=O)[C@H](C)NC(=O)[C@H](CC(C)C)NC(=O)[C@H](CCCNC(=N)N)NC(=O)[C@H](CCC(N)=O)NC(=O)[C@@H](NC(=O)[C@H](C)NC(=O)[C@@H]1CSSC[C@H](NC(=O)[C@@H](N)CCCCNC(=O)CC[C@H](NC(=O)CCCCCCCCCCCCCCCCCCC(=O)O)C(=O)O)C(=O)N[C@@H](CC(N)=O)C(=O)N[C@@H]([C@@H](C)O)C(=O)N[C@@H](C)C(=O)N[C@@H]([C@@H](C)O)C(=O)N1)[C@@H](C)O)C(=O)N1CCC[C@H]1C(=O)N[C@@H](CO)C(=O)N[C@@H](CO)C(=O)N[C@H](C(=O)N[C@@H](CC(N)=O)C(=O)N[C@H](C(=O)NCC(=O)N[C@@H](CCCNC(=N)N)C(=O)N[C@@H](CCC(=O)O)C(=O)N[C@H](C(=O)N[C@@H](Cc1ccc(O)cc1)C(N)=O)[C@@H](C)O)C(C)C)[C@@H](C)O
B2: N^ε1-[(4S)-4-carboxy-4-(19-carboxynonadecanoylamino)butanoyl]-[Glu14,Arg17,Pro21,Pro27,His34,Glu35]-h-amylin (peptide)
peptide: K([γGlu-C20 diacid])CNTATCATQRLAEFLRHSSPNFGAIPSSTNVGHETY-NH2
modifications: disulfide 2-7; N-terminus assumed
SMILES: CC[C@H](C)[C@H](NC(=O)[C@H](C)NC(=O)CNC(=O)[C@H](Cc1ccccc1)NC(=O)[C@H](CC(N)=O)NC(=O)[C@@H]1CCCN1C(=O)[C@H](CO)NC(=O)[C@H](CO)NC(=O)[C@H](Cc1c[nH]cn1)NC(=O)[C@H](CCCNC(=N)N)NC(=O)[C@H](CC(C)C)NC(=O)[C@H](Cc1ccccc1)NC(=O)[C@H](CCC(=O)O)NC(=O)[C@H](C)NC(=O)[C@H](CC(C)C)NC(=O)[C@H](CCCNC(=N)N)NC(=O)[C@H](CCC(N)=O)NC(=O)[C@@H](NC(=O)[C@H](C)NC(=O)[C@@H]1CSSC[C@H](NC(=O)[C@@H](N)CCCCNC(=O)CC[C@H](NC(=O)CCCCCCCCCCCCCCCCCCC(=O)O)C(=O)O)C(=O)N[C@@H](CC(N)=O)C(=O)N[C@@H]([C@@H](C)O)C(=O)N[C@@H](C)C(=O)N[C@@H]([C@@H](C)O)C(=O)N1)[C@@H](C)O)C(=O)N1CCC[C@H]1C(=O)N[C@@H](CO)C(=O)N[C@@H](CO)C(=O)N[C@H](C(=O)N[C@@H](CC(N)=O)C(=O)N[C@H](C(=O)NCC(=O)N[C@@H](Cc1c[nH]cn1)C(=O)N[C@@H](CCC(=O)O)C(=O)N[C@H](C(=O)N[C@@H](Cc1ccc(O)cc1)C(N)=O)[C@@H](C)O)C(C)C)[C@@H](C)O
notes: also called compound 107
B3: N^ε1-[(4S)-4-carboxy-4-(19-carboxynonadecanoylamino)butanoyl]-[Glu14,Arg17,Pro21,Pro27,His35]-h-amylin (peptide)
peptide: K([γGlu-C20 diacid])CNTATCATQRLAEFLRHSSPNFGAIPSSTNVGSHTY-NH2
modifications: disulfide 2-7; N-terminus assumed
SMILES: CC[C@H](C)[C@H](NC(=O)[C@H](C)NC(=O)CNC(=O)[C@H](Cc1ccccc1)NC(=O)[C@H](CC(N)=O)NC(=O)[C@@H]1CCCN1C(=O)[C@H](CO)NC(=O)[C@H](CO)NC(=O)[C@H](Cc1c[nH]cn1)NC(=O)[C@H](CCCNC(=N)N)NC(=O)[C@H](CC(C)C)NC(=O)[C@H](Cc1ccccc1)NC(=O)[C@H](CCC(=O)O)NC(=O)[C@H](C)NC(=O)[C@H](CC(C)C)NC(=O)[C@H](CCCNC(=N)N)NC(=O)[C@H](CCC(N)=O)NC(=O)[C@@H](NC(=O)[C@H](C)NC(=O)[C@@H]1CSSC[C@H](NC(=O)[C@@H](N)CCCCNC(=O)CC[C@H](NC(=O)CCCCCCCCCCCCCCCCCCC(=O)O)C(=O)O)C(=O)N[C@@H](CC(N)=O)C(=O)N[C@@H]([C@@H](C)O)C(=O)N[C@@H](C)C(=O)N[C@@H]([C@@H](C)O)C(=O)N1)[C@@H](C)O)C(=O)N1CCC[C@H]1C(=O)N[C@@H](CO)C(=O)N[C@@H](CO)C(=O)N[C@H](C(=O)N[C@@H](CC(N)=O)C(=O)N[C@H](C(=O)NCC(=O)N[C@@H](CO)C(=O)N[C@@H](Cc1c[nH]cn1)C(=O)N[C@H](C(=O)N[C@@H](Cc1ccc(O)cc1)C(N)=O)[C@@H](C)O)C(C)C)[C@@H](C)O
B4: N^ε1-[(4S)-4-carboxy-4-(19-carboxynonadecanoylamino)butanoyl]-[Glu14,Arg17,Pro21,Pro27,Pro34,Glu35]-h-amylin (peptide)
peptide: K([γGlu-C20 diacid])CNTATCATQRLAEFLRHSSPNFGAIPSSTNVGPETY-NH2
modifications: disulfide 2-7; N-terminus assumed
SMILES: CC[C@H](C)[C@H](NC(=O)[C@H](C)NC(=O)CNC(=O)[C@H](Cc1ccccc1)NC(=O)[C@H](CC(N)=O)NC(=O)[C@@H]1CCCN1C(=O)[C@H](CO)NC(=O)[C@H](CO)NC(=O)[C@H](Cc1c[nH]cn1)NC(=O)[C@H](CCCNC(=N)N)NC(=O)[C@H](CC(C)C)NC(=O)[C@H](Cc1ccccc1)NC(=O)[C@H](CCC(=O)O)NC(=O)[C@H](C)NC(=O)[C@H](CC(C)C)NC(=O)[C@H](CCCNC(=N)N)NC(=O)[C@H](CCC(N)=O)NC(=O)[C@@H](NC(=O)[C@H](C)NC(=O)[C@@H]1CSSC[C@H](NC(=O)[C@@H](N)CCCCNC(=O)CC[C@H](NC(=O)CCCCCCCCCCCCCCCCCCC(=O)O)C(=O)O)C(=O)N[C@@H](CC(N)=O)C(=O)N[C@@H]([C@@H](C)O)C(=O)N[C@@H](C)C(=O)N[C@@H]([C@@H](C)O)C(=O)N1)[C@@H](C)O)C(=O)N1CCC[C@H]1C(=O)N[C@@H](CO)C(=O)N[C@@H](CO)C(=O)N[C@H](C(=O)N[C@@H](CC(N)=O)C(=O)N[C@H](C(=O)NCC(=O)N1CCC[C@H]1C(=O)N[C@@H](CCC(=O)O)C(=O)N[C@H](C(=O)N[C@@H](Cc1ccc(O)cc1)C(N)=O)[C@@H](C)O)C(C)C)[C@@H](C)O

How the values were obtained:
[1] = molecular target: T1, human amylin receptor (amylin 3(a) …); experiment: cell-based or functional assay
[2] = molecular target: T2, human calcitonin receptor; experiment: cell-based or functional assay
[3] = molecular target: T1, human amylin receptor (amylin 3(a) …); experiment: SPA competition binding, displacement of 125I-rat amylin, membranes of BHK amylin 3(a)/CRE-luc cells
Summary of the method: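 Membranes from BHK Amylin 3(a)/CRE-luc cells (35 ng/μL final) were mixed with SPA beads and test compounds in 50 mM Hepes pH 7.4 with 1 mM CaCl2, 5 mM MgCl₂, 0.1% OA and 0.02% Tween20. Incubation ran 120 min at 25° C with shaking; IC₅₀ came from one-site competition fitting.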

| Binder | Ratio hCT/hAmylin funct. [1] | hAmylin-R funct. EC50 (pM) [1] [pM] | hCTR funct. EC50 (pM) [2] [pM] | IC50 [3] [nM] |
| --- | --- | --- | --- | --- |
| B1 | 6.5 | 421 | 2740 | 0.232 |
| B2 | 6.3 | 405 | 2540 | 0.387 |
| B3 |  | 425 | 5580 | 0.992 |
| B4 | 5.2 | 161 | 841 | 0.14 |
| K([γGlu-C20 diacid])CNTATCATQRLAEFLRHSSPNFGAIPSSTNVGPHTY-NH2 (disulfide 2-7) |  | 101 | 1450 | 0.179 |
